Laboratory results published in the supplement of paper PMC9112550, “Optimization of the antimicrobial peptide Bac7 by deep mutational scanning” (BMC Biology, 2022).

System: Escherichia coli TOP10
Experiment: shrunken log2 fold change of peptide-encoding DNA abundance (4.5 h post-induction vs induction); higher = less antimicrobial activity (less host growth inhibition)
Details: time post-induction: 4.5 h; library: site-saturation at positions 5, 18, 19, 20
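Further: peptides expressed intracellularly from a pBAD plasmid library in pooled LB shake-flask culture, induced with 0.3% L-arabinose, DNA abundance read by NGS, three biological replicates, DESeq2 with apeglm shrinkage.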

Sequence	shrunken log2 fold change
RRIRFRPPRLPRPRPRPMSYPRP	-0.138
RRIRCRPPRLPRPRPRPISCPRP	-0.0979
RRIRMRPPRLPRPRPRPNPFPRP	0.211
RRIRYRPPRLPRPRPRPVLPPRP	-0.511
RRIRKRPPRLPRPRPRPDPWPRP	0.422
RRIRLRPPRLPRPRPRPEPLPRP	0.0706
RRIRCRPPRLPRPRPRPPYVPRP	-0.455
RRIRARPPRLPRPRPRPTWVPRP	0.225
RRIRIRPPRLPRPRPRPHCDPRP	-0.0356
RRIRDRPPRLPRPRPRPIFMPRP	-0.285
RRIRVRPPRLPRPRPRPATSPRP	-0.0495
RRIRHRPPRLPRPRPRPILHPRP	-0.0471
RRIRSRPPRLPRPRPRPDQYPRP	-2.18
RRIRDRPPRLPRPRPRPGGPPRP	0.247
RRIRGRPPRLPRPRPRPTLHPRP	0.896
RRIRIRPPRLPRPRPRPFSSPRP	-0.181
RRIRQRPPRLPRPRPRPNPVPRP	-0.117
RRIRPRPPRLPRPRPRPYEVPRP	-0.125
RRIRFRPPRLPRPRPRPLMQPRP	-0.0117
RRIRERPPRLPRPRPRPAYCPRP	0.0672
RRIRIRPPRLPRPRPRPNRDPRP	-0.0377
RRIRRRPPRLPRPRPRPFFLPRP	0.0467
RRIRARPPRLPRPRPRPKFMPRP	0.0584
RRIRCRPPRLPRPRPRPKNWPRP	0.331
RRIRTRPPRLPRPRPRPMKNPRP	-0.146

Sequence	shrunken log2 fold change
RRIRWRPPRLPRPRPRPEKMPRP	-0.0237
RRIRWRPPRLPRPRPRPFTKPRP	-0.151
RRIRVRPPRLPRPRPRPWQCPRP	-0.00264
RRIRCRPPRLPRPRPRPLGCPRP	0.347
RRIRSRPPRLPRPRPRPQNRPRP	-0.106
RRIRERPPRLPRPRPRPSMIPRP	-0.171
RRIRRRPPRLPRPRPRPSWGPRP	-0.0778
RRIRARPPRLPRPRPRPRTFPRP	0.287
RRIRQRPPRLPRPRPRPYAYPRP	-0.0214
RRIRCRPPRLPRPRPRPLASPRP	0.139
RRIRMRPPRLPRPRPRPFYKPRP	-0.266
RRIRQRPPRLPRPRPRPWVKPRP	0.0219
RRIRYRPPRLPRPRPRPLFYPRP	-0.335
RRIRSRPPRLPRPRPRPVNLPRP	-0.0294
RRIRYRPPRLPRPRPRPVQYPRP	-0.0125
RRIRYRPPRLPRPRPRPYCNPRP	-0.515
RRIRNRPPRLPRPRPRPDTRPRP	-0.111
RRIRDRPPRLPRPRPRPCWEPRP	0.28
RRIRTRPPRLPRPRPRPDQAPRP	-0.0986
RRIRSRPPRLPRPRPRPTQYPRP	-0.0116
RRIRHRPPRLPRPRPRPIGLPRP	0.0101
RRIRGRPPRLPRPRPRPTCVPRP	1.04
RRIRCRPPRLPRPRPRPGCEPRP	0.159
RRIRIRPPRLPRPRPRPVIIPRP	-0.146
RRIRQRPPRLPRPRPRPERNPRP	0.0526

Sequence	shrunken log2 fold change
RRIRARPPRLPRPRPRPGAEPRP	1.1
RRIRWRPPRLPRPRPRPDTAPRP	-0.192
RRIRGRPPRLPRPRPRPYEQPRP	-0.157
RRIRARPPRLPRPRPRPDTNPRP	-0.0188
RRIRPRPPRLPRPRPRPEDDPRP	0.413
RRIRGRPPRLPRPRPRPPSMPRP	0.593
RRIRGRPPRLPRPRPRPAAIPRP	0.953
RRIRTRPPRLPRPRPRPVENPRP	-0.146
RRIRPRPPRLPRPRPRPNGKPRP	-0.257
RRIRMRPPRLPRPRPRPKKMPRP	0.249
RRIRYRPPRLPRPRPRPLQQPRP	-0.25
RRIRWRPPRLPRPRPRPVCMPRP	0.193
RRIRIRPPRLPRPRPRPAERPRP	0.0773
RRIRPRPPRLPRPRPRPYDYPRP	-0.355
RRIRPRPPRLPRPRPRPSTIPRP	-0.552
RRIRMRPPRLPRPRPRPTYSPRP	0.0196
RRIRPRPPRLPRPRPRPSYFPRP	-0.514
RRIRTRPPRLPRPRPRPSYWPRP	-0.153
RRIRSRPPRLPRPRPRPVRYPRP	0.0544
RRIRIRPPRLPRPRPRPLIQPRP	-1.02
RRIRTRPPRLPRPRPRPYYCPRP	-0.249
RRIRIRPPRLPRPRPRPLIRPRP	-0.508
RRIRSRPPRLPRPRPRPLPIPRP	0.0503
RRIRCRPPRLPRPRPRPFREPRP	-0.386
RRIRIRPPRLPRPRPRPMHMPRP	-0.0247

Sequence	shrunken log2 fold change
RRIRQRPPRLPRPRPRPWLEPRP	0.0751
RRIRSRPPRLPRPRPRPFKRPRP	-0.013
RRIRLRPPRLPRPRPRPFGVPRP	0.028
RRIRIRPPRLPRPRPRPERDPRP	-0.175
RRIRNRPPRLPRPRPRPHFIPRP	0.121
RRIRIRPPRLPRPRPRPEGSPRP	0.0664
RRIRDRPPRLPRPRPRPQPPPRP	0.424
RRIRQRPPRLPRPRPRPFCWPRP	0.42
RRIRFRPPRLPRPRPRPSMLPRP	-0.47
RRIRYRPPRLPRPRPRPYNVPRP	-0.0198
RRIRVRPPRLPRPRPRPTLKPRP	0.151
RRIRSRPPRLPRPRPRPGWYPRP	-0.118
RRIRTRPPRLPRPRPRPEAQPRP	0.00719
RRIRVRPPRLPRPRPRPTETPRP	0.0324
RRIRNRPPRLPRPRPRPKRHPRP	-0.455
RRIRPRPPRLPRPRPRPTLDPRP	0.172
RRIRRRPPRLPRPRPRPLETPRP	1.01
RRIRPRPPRLPRPRPRPMDIPRP	-0.158
RRIRIRPPRLPRPRPRPCYPPRP	-0.428
RRIRMRPPRLPRPRPRPNKPPRP	-0.0387
RRIRLRPPRLPRPRPRPTMFPRP	-0.0861
RRIRFRPPRLPRPRPRPDDTPRP	0.0516
RRIRPRPPRLPRPRPRPLQMPRP	0.205
RRIRMRPPRLPRPRPRPTCLPRP	0.413
RRIRDRPPRLPRPRPRPGGHPRP	0.188

Sequence	shrunken log2 fold change
RRIRIRPPRLPRPRPRPHYHPRP	-1.47
RRIRCRPPRLPRPRPRPCITPRP	-0.0767
RRIRPRPPRLPRPRPRPTFQPRP	0.408
RRIRARPPRLPRPRPRPNKEPRP	-0.211
RRIRKRPPRLPRPRPRPPNSPRP	0.156
RRIRVRPPRLPRPRPRPKSYPRP	-0.425
RRIRSRPPRLPRPRPRPNFEPRP	-0.068
RRIRLRPPRLPRPRPRPENYPRP	-0.041
RRIRCRPPRLPRPRPRPWDGPRP	0.0877
RRIRSRPPRLPRPRPRPLSTPRP	-0.369
RRIRARPPRLPRPRPRPGAHPRP	0.669
RRIRDRPPRLPRPRPRPQYDPRP	-0.0265
RRIRSRPPRLPRPRPRPEREPRP	-0.0693
RRIRTRPPRLPRPRPRPNSDPRP	-0.0311
RRIRHRPPRLPRPRPRPQYAPRP	-0.00149
RRIRTRPPRLPRPRPRPWSSPRP	-0.241
RRIRARPPRLPRPRPRPGICPRP	0.182
RRIRIRPPRLPRPRPRPDKQPRP	0.0185
RRIRLRPPRLPRPRPRPSGFPRP	-0.259
RRIRFRPPRLPRPRPRPRDQPRP	0.0987
RRIRYRPPRLPRPRPRPKLEPRP	0.00557
RRIRSRPPRLPRPRPRPAHWPRP	0.416
RRIRHRPPRLPRPRPRPFMIPRP	-0.341
RRIRGRPPRLPRPRPRPNAVPRP	0.924
RRIRQRPPRLPRPRPRPVAWPRP	0.128
